Assay: label from the status in PepcDB records
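Note: failed if final PepcDB status was selected cloned or expressed and not failed if soluble or beyond.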

QALDVLDDAGRKVLFTEARTANTFAEVAVADDELAMIWELARWSPSAANGQPLRVLFVRTPEGKERLGRHLDEGNRAKTLSAPAVAILAYDVDFHEQMPTVFPARGEMLRAAFADQTEKRESLAAYNSALQTGVFLLAVRAAGLAAGPMAGFDRAGVDEEFFAGTSWRSHLVVNIGHPGADPWFPRLPRVPVEDAVAYA
protein production: failed

MYETFMKRAIELAKKGLGRVNPNPPVGAVVVKDGRIIAEGFHPYFGGPHAERMAIESARKKGEDLRGATLIVTLEPCDHHGKTPPCTDLIIESGIKTVVIGTRDPNPVSGNGVEKFRNHGIEVIEGVLEEEVKKLCEFFITYVTKKRPFVALKYASTLDGKIADHRGDSKWITDKLRFKVHEMRNIYSAVLVGAGTVLKDNPQLTCRLKEGRNPVRVILDRKGVLSGKVFRVFEENARVIVFTESEEAEYPPHVEKALSDCSVESILRNLYERDIDSVLVEGGSKVFSEFLDHADVVFGFYSTKIFGKGLDVFSGYLSDVSVPPKFKVVNVEFSDSEFLVEMRPCSRE
protein production: not failed

MSLKYQLRFGGEGGQGVITAGEILAEAAIKEGRQAFKASTYTSQVRGGPTKVDIIIDDKEILFPYAVEGEVDFMLSTADKGYKGFRGGVKEGGIIVVEPNLVHPESEDYKKWQIFEIPIITIAKDEVGNVATQSVVALAIAAYMSKCIDLDVLKETMLHMVPAKTRDANAKAFDLGVKYATQAKPHEGHHHHHH
protein production: not failed

MILLGVSERSDHSLHITGVDDAHKLVQDFWNTVHDSSTISSVVLSENDVVVRHTGQGDIVSIDIPRASRERIPVYVGPNPLKGSYRRNGDGDYLCDSETVHAMLRDSDLRPLDRKIVGG
protein production: failed

MFFTDWEGPWILTDFALELCMAVFNNARFFSNLSEYDDYLAYEVRREGYEAGYTLKLLTPFLAAAGVKNRDVERIAELSAKFVPDAEKAMATLQERWTPVVISTSYTQYLRRTASMIGVRGELHGTEVDFDSIAVPEGLREELLSIIDVIASLSGEELFRKLDELFSRSEVRKIVESVKAVGAGEKAKIMRGYCESKGIDFPVVVGDSISDYKMFEAARGLGGVAIAFNGNEYALKHADVAIISPTAMSEAKVIELFMERKERAFEVLSAVSIPETEIYIMENSDFGEVLEKSKRMRVRLRGLAGELG
protein production: not failed

MQFNPTLDSIKTYEAGKPIELVVREYGIKPQNVIKLASNENPFGASPKVIEAIAKEAVNAHRYPDDSMFELKEGLAGRFGVKSENVIIGSGSDQILEMAVHAKCNASSKVLMSKTTFAMYDVYSRQVGARILRTPSDQHHLGEFWEIYQKERPEILFLCLPNNPLGECLDREEVYDFLQKIDDETLVIVDGAYQEYAAFKDSQKRIDPKDLIERFPSSIFLGTFSKAFGLGGMRVGYGIAQPSIIQALMKMRAPFNITTLSLKAAIEALKESAYVEETIKENFKEMRRYEEFALAQGIDFIPSYTNFITLLLKNRVDSSEFSQWLLERGLIVRNLKSYGINAIRITIGRSLENDRCFELMQEYLHQF
protein production: failed

MQRGDISMTKRKDIHFRIEEKLLERFESALHYEGLKKTDVLTHAIQQFCMKVEYEKMNDVKRQYSVSNNLQTRIDTHKHYEEKQVNLDEIVIEHLQLQGRERILEVGCANGKFLSLLQANGHKGQLTGFDQSEAMLSEATKTNNLIEWRLGDAGKLPFEANYYDLIVARHMLYHMKDVEKTIQGFHKVIHPGGSLLATTNSNVTLPRIVEMCNRMLDTFDLPKTTSSVTPFCLENGKEILQSVFPTVEVSVIHNALVFHHATPIVNYISSMFPSLNIPDNTLLHAEMKDWLKEEVENELLLHNGIWRDPKTLAIYRCQKEKS
protein production: failed

MTHTRRALSTVGKGLAALRHLLPLLLCLLVLAGCAKAPYTGRSQFIMVSPQQEMALGQQESRKILSKEPVKTGTDEAQRVETVGRRIAAAARRGDFRWEFHLIGKDVANAFCLPGGKVFVYEGIFKYADTDAELATVMAHEVGHAIARHGAERMSRAMMVQMGHDAAAIALGVAGGSPAAVQAFSQAYGTGANVGLMLPFGREQEYEADRIGLMLMAQAGYDPRAALDFWRKMSSAPGKRPPEFLSTHPTGQHRIAELQARMGDALRVYRPPSGK
protein production: failed

MKCKRLNEVIELLQPAWQKEPDFNLLQFLQKLAKESGFDGELADLTDDILIYHLKMRDSAKDAVIPGLQKDYEEDFKTALLRARGVIKELEHHHHHH
protein production: not failed

MNEFMEPLDRISAETLGHYERNAEAFFEGTRDHDVSQNIAALLSHIRTEPPFTVLDFGCGPGRDLKAFTELGHRAVGLDGAFRFVEMARDYSGCEVWHQDFLKLDLPEEHFDGIFANATLFHVPSRELPRVLGELRAALKPEGVLFASNPRGRNEEGWNRGRYGVYHDLDTWRRFLTSAGFLELEHYYRPAGLPRDQQPWLASVWRRTLEHHHHHH
protein production: not failed

MLVKININGKKKSVDIEPEEYLVDTLRKVGNLSVKRGCDTGCCGLCTVLIDKKPTLSCATLTLRALDKEITTIEGLENEVKEFSEVLVKEGAEQCGFCSPGFILTVLAMKDELENPTDDEIKHYLTGNLCRCTGYMGQLRAIKTYLEVK
protein production: failed

MKIMTKALNRTTLGLALGLASSQLLAAGFALNEQSISGMGTGFAGRSSSADDASTVFGNPAGMSRIKREQISVGAAAVIAKTDIDNGRGTFGGSNDGDMVPVVGVPMGYYVKPIDDHWAFGLGVYVPFGLVTDYEKGFAGRYWGDKSHVQIVTFQPTVSYAFNDKVSIGFGPTINRIDGELTSAVPNRASLGTNDGKVKIKGDDTAIGFNAGILVQATDTTRLGLTYHSKVDYKLEGKTKVEGSGFGPFGGQKYDASLDISTPESVDFSITQQLDENWTVYAGSTWTRWSRLKDITVENSGVPTALASSIGTITEEQDWHDTWAHAIGASYKVNKEWTLRTGFSVDQSPTNNVNRSPRIPTGDRKIISFGAGWSPTDDLTIDVAYSYLREDETKIRDSSATKGSYSADYRNTAHGLGTSVTYRF
protein production: failed

MDPLALLRKAGLEAEGPALPLHGGDISRVWRVGRFVVKTAQDPPPGLFRAEARGLQALAERGVRVPQVHWVGEEGLVLAYLEPGPEDWEGLARTLAALHRRREGSYLAEPGFLGTFPLPGREGGEWTAFFYERCVLPLLEATWDRLQGLGPKVEALYRRPLPAEGPAPLHGDLWHGNVYFAREGPALLDPSFFVGERGVDLAMMRLFGGFPRRFWEVYGELYPVPEEVERALPRYQVYYLLAHVHFFGQGYLGALWRAISAS
protein production: failed

MSASVVCVVGNPNCGKTTLFNALTGGRQSVGNWPGVTVEKKVGAYRHGGEAVTIVDLPGVYSLTPTSSSSEDERVARDYILSGEAGLVLNIVDASNLERNLYLTAQLLEMRVPMVVIVNMMDIAASRHLDIDIDALSKSLDCKVVPMVASRRRGLDDLREVIAQSMGRTTPPAASAPYPPAVSEAVGRIAATLPADSRADRRWTALQLLEGDSTLLRDLPPATALALESDLKQAAQSGTEDFDILIADARYGFVGAIALGAVIRKGQMSRTLTDRIDKVVLHRVLGIPIFLAMMYLMFVFTINVGGAFIDFFDQFAGTLFVDGFGHLLGGAGAPDWLTALLAKGVGGGVQTVATFIPVIGFLYLFLSVLEDSGYMARAAFVMDRFMRGIGLPGKAFVPLIVGFGCNVPAVMATRTMDSRRDRLITVMMAPFMSCGARLPVYVLFAAAFFPSGGQNLVFALYLIGILVAIATGLLLKTTALRGEASPFVMEMPPYHLPTVAGILLRTWDRLKSFILRAGKLVVAVVVVLSFLNSWGTDGSFGNEDTDKSVLAAIGKAIVPVFAPMGISEENWPATVGVFTGIFAKEAVVGTLDALYGTIAEGNAAAAQAEADPEAAATEEPEAFDLWGGLAGAFATIPANLSNVAGALADPLGIEVGDLSDRSAVAADQEISTSSIDAIALLFDGAIGAFAYLLMVLLYMPCVAAVSAIWREVGTRWTLFAAAWTTGMGYGAAVLTYQIGTFSRHPVSSAVDIAVVLAVLAAAIALLRLAGRGSAEAGPISAGQTAS
protein production: failed

MAQGFKITYTDQACLLDIQDPQNKESQSFHYALVPRGVEAENIPADYTVIETPIRSVICMTSLQLSNFIKLEELDAVVGITSTRHLFNKKINDRLKDGSIHKIGIEGNFDNEVIMSVNPDLILISPFKRGGYDALKEVGIPLMPHLGYKEMTPLGQAEWIKFVGLLLGREDKANKQFAAIKKRYNELKELTGLEHHHHHH
protein production: failed

MDTDNNLTFVDFYYRWLEITKLDIINDTSYKRYITAIKAFKDCFGNKLISDIDSLSYQKFLKDYGRGHFLNNGQLRPRTSNTVSKMNNCLKQAFESAVEQGYIKKNLEHHHHHH
protein production: failed

Source: a protein production outcome set (Wang et al. 2014)
